# The DeepSol protein solubility set
# Assay: soluble on expression in E. coli; label from the status in PepcDB or PDB records
row,Sequence,soluble on expression in E. coli
1,MNKDNSPSESLVNSSASEDKTVKTSMSANNPSINDSSLPERLPAMCGCDSQNREESANSGVQLSDHANESLSKQADDVIYEGGLEDKDSVFRAIIEDDDACEVLDDGIDNCEVEIPVAIECHLCNEMMNLCLRRTRYRGQAREYPAYRCNRKGCQTFRSIRKVFGNCMSDVDNSGDATTRTMIYHPPHKVRKTSPGEFSDDDSKEFVVQRVYIPKIDNRNKDQSVKSLSVTDRMRKANQDRAIVFSEFADQLRRDIVANKRVRIKKHVEEDQQGTLFYISKELNPQEVIELQDVIIKTLISMRKIPPPMTMDDLPLFANCPYSKKAVDAGEFDMSETEERPRPKLPKTIYQNTRTHSDSLTERSRHFTYDELKHSMEANAEGPSTCRIGISRSERNSESLQWIGLKTYEDSTDGFAKSVNSEGERQQGINGQIDDEVFEDESRFKPVASMQDVMRTLSTPSTLRPPVSPLMKSFSSMDSSNFKNPINAHPPMFFSDPHFLINNNQFNSPTPFYALNSYFPSFPMDSSQVYQNATDEHFTPSGASEVVCTEQTPGHHFTYIHPDSGVRLTDPSAFLTSFVPSPITKVPPINFNDETSRSRSASAPSTSVYNTGEFERSHKKYENEEDEKLMDNQNFSDEQPKE,not soluble
2,MKKFSGIIPPVSSTFHRDGTLDKKAMREVADFLINKGVDGLFYLGTGGEFSQMNTAQRMALAEEAVTIVDGRVPVLIGVGSPSTDEAVKLAQHAQAYGADGIVAINPYYWKVAPRNLDDYYQQIARSVTLPVILYNFPDLTGQDLTPETVTRLALQNENIVGIKDTIDSVGHLRTMINTVKSVRPSFSVFCGYDDHLLNTMLLGGDGAITASANFAPELSVGIYRAWREGDLATAATLNKKLLQLPAIYALETPFVSLIKYSMQCVGLPVETYCLPPILEASEEAKDKVHVLLTAQGILPV,not soluble
3,MKITVFGATGNVGNRVITEALLRGHEITAVLRNNARANEFDSSVKVVIGHADNVDDVVKWSDGQDLIISATRPPQGLESQLVDTAKALLSGLAQTKVRLLLVGGAASLTVPNSNGMLVVDDTDLVPTAWRDIALACLAQHKLCQENESVDWSYISPPAVIVPGERTGIFRTGSDELLVDEQGQSTISLEDFAIALLDEAEVVKHKRKRFTVAYLEHHHHHH,not soluble
4,MGSDKIHHHHHHMSRLERLVTIDSLIRSRTYPSVADFCARFELSERAIFADLAYLRERIGAPLAYSRRNGGYYYRDPTWVMPMLQVTEGELLAFLISTELSRRYLGTPFAAPLRRLLQRMEAYITEQIVVHPDALLAHLTFQPGALAAVDPELVQVLHECIRECYPVEITYFTASRQELTHRLIEPYHLFLARGDLHVIAFDHLRGELRQFALYRIRQWQVRRHERFVRNPQIDIAAYLRNGFVVEGGTQPLLIEIAFDREQAPYIRERQWHATQQLEDQPDGGVILRFQSGALGEIKRWVLGYGSHARVLSPPELVQMVADELRKAAALYT,not soluble
5,MAKNDIWTPLESNPDSLYLYSCKLGQSKLKFVDIYGFNNDLLDMIPQPVQAVIFLYPVNDNIVSENNTNDKHNLKENFDNVWFIKQYIPNSCGTIALLHLYGNLRNKFELDKDSVLDDFFNKVNEMSAEKRGQELKNNKSIENLHHEFCGQVENRDDILDVDTHFIVFVQIEGKIIELDGRKDHPTVHCFTNGDNFLYDTGKIIQDKFIEKCKDDLRFSALAVIPNDNFDII,soluble
6,MLMRPLDLTEKRGKKVTIYFEGKELEAYEGEKLPVALLANEIYWLTTSNEGRKRGAFTFGPVPMTVNGVKGLEARRIKVKDGMKIERQGYYDFHEEPVVEPGEIERVVVDVAIIGGGPAGIGAALELQQYLTVALIEERGWLGGDMWLKGIKQEGFNKDSRKVVEELVGKLNENTKIYLETSALGVFDKGEYFLVPVVRGDKLIEILAKRVVLATGAIDSTMLFENNDMPGVFRRDFALEVMNVWEVAPGRKVAVTGSKADEVIQELERWGIDYVHIPNVKRVEGNEKVERVIDMNNHEYKVDALIFADGRRPDINPITQAGGKLRFRRGYYSPVLDEYHRIKDGIYVAGSAVSIKPHYANYLEGKLVGAYILKEFGYDAQPCIYEEKLREYEPESLSIPRIPLDKFNLEDVQICGCDVSLKKVDEVIRKGITDLQIIKRLTHLAMGFCQGRYCLFNGAVVVSQRTGKKLSEIDLPVARSPIKNVKMGILARR,soluble
7,HHHHHGSIMKVLRKGDRGDEVCQLQTLLNLCGYDVGKPDGIFGNNTFNQVVKFQKDNCLDSDGIVGKNTWAELFSKYSPPIPYKTIPMPTANKSRAAATPVMNAVENATGVRSQLLLTFASIESAFDYEIKAKTSSATGWFQFLTGTWKTMIENYGMKYGVLTDPTGALRKDPRISALMGAELIKENMNILRPVLKREPTDTDLYLAHFFGPGAARRFLTTGQNELAATHFPKEAQANPSIFYNKDGSPKTIQEVYNLMDGKVAAHRK,soluble
8,MGSDKIHHHHHHMKISTHELIAVVSQFNPWWRGESIQDLPTWHRAAYQELELWLIKPPVPRAIFLSGARQIGKTTLLLQAIDKLLKEGVKPGNILYVTFDHPLIKMSDIDAVLEAWREREPKTGDLEYIFIDEAQFMRSWGTWIKHQVDFSKSRRIFFTGSATPIIEADQESGVGRWHTIRLTTLSFYEYLQIKKIDLPQLPTVKTLRELFEWPQQEFYKVKELAVHYVGHFHEYLLRGGFPQTAQVENITQAQRLLREDIIDKVLKRDMTALFGVRRILELEQTFLYLCMHDGGLLDMTDLCSNLEVKRPTIQNYIFLLEATNLIYRLPPFGYGKDILRAKYKIYLADAAIAPAVLLKDKSILDDPESLGIATETAVFKHLFARYYSQNVRFSYWRGTKDHEVDVVAQIGDQIIPFEVKYRSQHTNAKALKGLLELCKKKSIAHGYVVTKSLDDFGIMKALPEIKTNIMQIPAPLLCYWMGESELRQTFGV,not soluble
9,MAHHHHHHMRRVLLFRNRVDFVATLLQQGRLADMLMLQHFTSRTPQKPPAGNAAERNSGGTKVSVGETSRRALLTRCEAVKAKAMSTPCTDWLADAYGSGEWCALSESRDMVRVVASDNDPTRVKLRGTFPVLVQEGSSPASVRLAASKESGEALIVTVPLVQSGEKVRSSAIGGGIRAVTLKEADGSVVSDAATSVDAFAAEQNILSAAVCSGILGKLEEICALHATHTVRYDALLVRNPAVQKRLSQLACARFSLDALSSFVASAAVDEPMPLVESVALRMHAKHALAIGMGSARDIIHGTAMLKASPHRSKPERLIDYPYAQQLFASERYVLSSLGASSAAETMRHFTPLLMQPQTHMPAGVQGPLASLLLGGKGGNVNLAAPHANLRVSAAFLEKDIAAMLQRIQQQKKRADPLFVMAIAQYVAELFANTAVVYRTTASLTHEDDSAPRDWLLTQAFCADSSARRATILCEWDLSSAARKAIGKAADLNGCTTHPVELMNAEPARKPKVPSKSAAASVTQEAN,not soluble
10,MYVVKSANDGGNSLFLSSSDIVNQLSKTETGKKHLKTLTGNLYPFKTPASFDKKQGVRWGNILSVNTQMIRFRSDCIYKGIEENRNKVSKEMVLALDYLINVIKNASDIQEFSAQDDGLIIIDNVNGLHARTDYTDKNRHYIRARITV,not soluble
11,MAAQRIRAANASGLPRCKSEGTLIDLSEGFSETSFNDVKVPSPSALLVDNPTPFGNAKEVIAIKDYCPNNFTTLKFSKGDHLYVLDTSGGEWWYAHNTTEMGYIPSSYVQPLNYRNSTLSDSGMIDNLPDSPEEVAKELDLLGGGWTDDQKESGRPYSNNPFWNGVRTNPFLNGNAQPSTDELNPKSTVDLLLFDTGTSSFTESSSATTNSTGNIFDELPATNGLQVEQPVKRDNPFFRSKRSYSLSELSVLQAKSDAPPTSSFFTGLKSPVPEQFQSREDFRTAWLNHRKLARSCHDLDLLGQSPGWGQTQAVETNIVCKLDSSGGSVQLPDTNISIHVPEGHVAPGETQQISMKALLDPPLDLNSDRSTSVSPVVEVKLSNLEVSTFIILEMKVSAEVKGDIFSKSTVVLQCLRSDSKEGPYVPIPLAYSYGDTIQVQLDNLEPCMYLAIVAQGPNILYPSTVWDFINKRVTVGLYGPKHIHPSFKTVVTIFGHDCAPKTLLVSEVTRQAPSPAPVALQLWGKHQFILSRPQDLRVCMFSNMTNYEVKANEQARVVRGFQMKLGKVSRLIFSVISQNPNELSDFTLRVQVKDDQDTILTQFCVQTPQPPPKSAIKPSGQRRFLKKNEVGKIILSPFVVTTKYPTFQDRPVSSLKFGKLLKTVVRQNKSHYLLEYKKGDVVALLSEERIRLKGQLWTKEWYIGYYQGKVGLVHTKNVLVVGKARPSLFSGPELSTSVLLEQILRPCKFLTYIYASVRTLLMENISSWRAFADALGYGNLPLTFFCRAELDSEPERVASVLEKLKEDCNNPDNKDRKSFQKELVMALLKMDCQGLVVRLIQDFVLLTTAVEVAQRWRELAEKLAKVSKQQMDAYESPHRDRNGVVDSEAMWKPAYDFLLTWSHQIGDSYRDVIQELHIGLDKMKNPITRRWKHLTGTLILVNSLDILRAAAFSPADHDDFVI,soluble
